Laboratory results: paper PMC8563728 (Nature Communications, 2021)

Molecular target: SARS-CoV-2 S1 (SARS-CoV-2, wild type (Wuhan-Hu-1), UniProt P0DTC2)
Assay: SPR
Conditions: both partners purified

B1: 58G6 (antibody, V domains shown)
VH: QMQLVQSGPEVKKPGTSVKVSCKASGFTFSSSAVQWVRQARGQHLEWIGWIVVGSGNTNYAQKFQERVTLTRDMSTRTAYMELSSLRSEDTAVYYCAAPNCNSTTCHDGFDIWGQGTVVTVSS
VL: EIVLTQSPGTLSLSPGERATLSCRASQSVRSSYLGWYQQKPGQAPRLLIYGASSRATGIPDRFSGSGSGTDFTLTISRLESEDFAVYYCQQYDNSPWTFGQGTKVEIK
notes: also called 58G6 mAb; copies: 2 + 2
Kd: 1.08 nM
